Measured values as given in paper PMC10234869.
Blank lines part the entries; values can stand above or below the molecule they belong to.

Tests used:
[1] = target: Signal Peptide Peptidase-like 2c, C-terminally myc-tagged (SPPL2c-myc) (murine) (UniProt A2A6C4)
[2] = target: Frey1 CD74-Lum (Frey1-3xFLAG with its luminal domain replaced by the first 70 aa of the luminal segment of CD74) (murine) (UniProt Q8CF31); assay: co-IP; anti-FLAG M2 and Protein G agarose from 0.5% CHAPSO lysates (1 mg in 500 µl, overnight, 4 °C) of transiently transfected HEK293T cells; four washes with CHAPSO buffer; eluates blotted; co-precipitated SPPL2c divided by the precipitated Frey1 or PLN variant and normalised to wild-type Frey1

inhibition of SPPL2c-mediated processing of HA-RAMP4-2 in HEK cells (Fig. 4H, I) [1]: 50%
Molecule: PLN PRSAG (3xFLAG-PLN with the Frey1 residues P11, R12, S16, A25 and G26 at the corresponding positions of its membrane anchor) (from UniProt P61014 1-52)

co-precipitated SPPL2c, percent of wild-type Frey1, normalised to the expression level [2]: 20%
B1: Signal Peptide Peptidase-like 2c, C-terminally myc-tagged (SPPL2c-myc) (enzyme)
chain: EYGLVRVVSKNWSKDYCVLYSSDYVNLPRDLHHAPLLSLHDGTKTPWCPDEDSFHQAQDSSPRQRPLHQTTTMVTRGNCSFYAKGWLAQDQGAQGLLIVSRARNQQCSDTISKPQDPSKPWPALTIPVAVLRYTDMLDIVSHTYGDTDVRVAMFAPLEPVTDYNMAIIFILAVGTVAAGGYWAGLMEANKLQRRQAQRGGGLGGHNQQQTVAAERSQRAWEDDDFEDAPMDFTPAMTGAVVTMSCSIMILLYFFYDCFVYVMIGIFSLGASTGLYSCLAPILCHLPLWRYQWVLPGQRVSVTWPLLLLAGLCAMVTVLWVIHRNEDHWAWLLQDTLGVAYCLFVLRRVRLPTFKNCTLFLLALLAFDVFFVFITPLFTKTGESIMVEVASGPADSSSHERLPMVLKVPRLSFSALTLCNQPFSILGFGDIVVPGFLVAYCHRFDMQVQSRQVYYMACTVAYAVGLLVTFVAMILMQMGQPALLYLVSSTLLTSLAVATCRQEFTLFWTGQGRAKIPAEPVAQPCIASAVGSKMKLEDAKDSRTTNRFEQAVDGESGDLESSTGDDMAEMVTLSEDEATSPEGHSESSEGWSDTNLDPNELPSGSPMALEAMLIPLIQPIPHPSELGHIRTQSRVHDSSLPWMGLHKRKGLKVKKSMSAQAPL
